# Measured values: patent US20110189284A1, “Peptide Fibres” (UNIVERSITY OF BRISTOL, priority 2009, published 2011)
# Legend:
# PC12 cells = assay: Alamar Blue cell-proliferation assay; format: cell-based, rat; settings: cells on collagen; peptide 0.5-2.5 mM total; 72 hours
# Description: PC12 cells were exposed to different concentrations of hSAFAAA-W peptides (from 0.5 mM to 2.5 mM). Results are expressed as percentage of fluorescence from cells incubated with hSAFAAA-W versus no-peptide controls (100%). Mean+/−s.d. mean for n=3 experiments. […] Staurosporine was used to establish definite cell death.
# Rat adrenal pheochromocytoma (PC12) cells and the subclone Neuroscreen-1 (NS-1) cells (ThermoFisher Scientific Cellomics) were used. Cells were maintained at 37° C., 5% CO2 in cell-culture medium comprising: Dulbecco's Modified Eagle Media (DMEM, Invitrogen) supplemented with 10% (v/v) horse serum (Sigma), 5% (v/v), fetal bovine serum (Sigma), 1% (v/v) penicillin/streptomycin solution (Sigma), and 2 mM L-glutamine (Invitrogen). […] The fluorescence (excitation, 560 nm; emission, 590 nm) of 100 μl samples was measured. The ratio of the fluorescence intensities to that for a no-peptide control wells was taken as a measure of cell proliferation. […] Cell morphology was followed up using Leica Microsystem Wetzlar GmbH (090-135.001) and images recorded using Canon PowerShot S70 7.1 megapixels. […]
# [1] = Particle-tracking microrheology (PTM) of gel strength versus temperature; format: physicochemical; settings: as a function of temperature
# Description: Gel strength was probed using particle-tracking microrheology (PTM), in order to detect any difference between the behaviour of the material at the bulk and micro scales. PTM is a non-invasive technique for measuring local viscoelasticity in complex fluids (Cicuta & Donald, 2007). PTM directly observes the motion of embedded probe particles via optical microscopy. The mean square displacement (MSD) of the particles is calculated and related to the viscoelastic modulus of the sample using a Generalised Stokes-Einstein Relation (Mason, 2000; Hasnain & Donald, 2006). […] The spatial information for individual probe particles can be used to quantify the degree of heterogeneity in the system (Houghton et al., 2008).
# Experiments were carried out using a Zeiss LSM 510 confocal microscope operated in bright-field mode with a 50× objective. […] Videos were captured in uncompressed avi format at 640×480 resolution and analysed using custom-written Matlab scripts. Viscoelastic moduli were calculated by taking Laplace Transform of the MSD and using GSER. […]
# To confirm and quantify the gel strengths, the storage (G′) and loss (G″) moduli were recorded as a function of temperature using both microrheology (FIG. 3) and bulk oscillatory rheology, FIG. 4a. […]
# hSAFQQQ p2 = target: T1, hSAFQQQ p2; assay: complementary peptides mixed on ice at 1 mM each; vial inversion gel test
# T1 construct: Second peptide of the hSAFQQQ pair; also called peptide f)
# T1 peptide: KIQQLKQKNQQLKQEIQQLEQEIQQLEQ
# Description: (§1) Complementary hSAF peptides were mixed on ice, and either allowed to assemble at this temperature for 30 minutes, or removed after 5 minutes and incubated for 25 minutes at 20° C. After these times, to test for gel formation, sample vials were inverted and incubated for a further 30 minutes without changing the temperature (FIG. 2). Through this simple test, hSAFAAA and hSAFQQQ both formed self-supporting gels. hSAFQQQ formed a gel at low temperature, which melted on warming; whereas, the hSAFAAA appeared to form a weak gel at low temperature that strengthened on warming.
# hSAFAAA p2 = target: T2, hSAFAAA p2; assay: as above
# T2 construct: Second peptide of the hSAFAAA pair; also called peptide b)
# T2 peptide: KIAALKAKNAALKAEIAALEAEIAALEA
# Description: as §1
# hSAFAAQ p2 = target: T3, hSAFAAQ p2; assay: summary of microscopy of the mixed peptides
# T3 construct: Second peptide of the control pair hSAFAAQ
# T3 peptide: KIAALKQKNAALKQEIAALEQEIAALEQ
molecule,measurement,setting,value
CN[C@@H]1C[C@H]2O[C@@](C)([C@@H]1OC)n1c3ccccc3c3c4c(c5c6ccccc6n2c5c31)C(=O)NC4 [staurosporine],cell proliferation / death versus no-peptide controls,PC12 cells,died
KIAALKAKNAALKAEIAALEAEIAALEA [hSAFAAA p2],gel state by PTM,[1],formed a weak gel detectable by PTM
KIQQLKQKIQQLKQEIQQLEQENQQLEQ (First peptide of the hSAFQQQ pair; also called peptide e)) [hSAFQQQ p1],binding result,hSAFQQQ p2,binds
KIAALKAKIAALKAEIAALEAENAALEA (First peptide of the hSAFAAA pair; many copies assemble with p2 into a staggered heterodimer coiled-coil fibril; also called peptide a)) [hSAFAAA p1],binding result,hSAFAAA p2,binds
KIAALKQKIAALKQEIAALEQENAALEQ [hSAFAAQ p1],binding result,hSAFAAQ p2,binds
